Reference: US20160068834A1 (Dana-Farber, published 2016)
Bridges are numbered along the chain shown (N, C = ends). Where no end group is shown, it is not given here. [ ]: non-standard residue; d: D form. The star is where a group is joined. FITC = O=C1OC2(c3ccc(O)cc3Oc3cc(O)ccc32)c2ccc(NC(=S)*)cc21; S5 = C=CCCC[C@](C)(N)C(=O)O

What was measured:
purified EED (Example 6) = purified EED (Example 6) (UniProt O75530 1-441, limits assumed); experiment: competitive fluorescence polarization: EED 200 nM, FITC-EZH2(42-68) 20 nM as competitor, 30 min
Method: The EED binding affinities of SAH-EZH2 and SAH-EZH2(42-68)AC were assessed by their capacities to displace FITC-labeled EZH2(42-68) peptide from EED. Serially diluted acetyl-SAH-EZH2 and the doubly stapled acetyl-SAH-EZH2(42-68)AC (dose range from 2.5 nM to 10 μIM) were incubated with purified EED (200 nM) and FITC-labeled EZH2(42-68) peptide (20 nM) for 30 min, followed by measurement of fluorescence polarization. N-terminal acetylated SAH-EZH2(42-68)AC displaced FITC-labeled EZH2(42-68) peptide from EED two times more efficiently than SAH-EZH2. The non-binding EZH2(47-64) construct was used as a negative control.

[1] = target: T1, native EED in MLL-AF9 leukemia cells (UniProt Q921E6 2-441, limits assumed); experiment: anti-FITC immunoprecipitation from peptide-treated MLL-AF9 cells, EED western
T1 construct: Endogenous intracellular protein
Method: To assess the interaction between SAH-EZH2 peptides and native EED, MLL-AF9 leukemia cells (2×10⁷) were cultured in 10 ml AF9 media using 10 cm dishes (BD Biosciences) and FITC-SAH-EZH2 peptides added to final concentration of 20 μM, followed by 8-12 h incubation. Treated cells were washed and trypsinized as above, lysed and then incubated with 50 μl of FITC-antibody (1 mg/ml) and 100 μl of protein G agarose (Roche) for 3 h. The amount of EED bound to FITC-SAH-EZH2 peptides was assessed by anti-EED western analysis (Millipore). To monitor for dissociation of native EED-EZH1/EZH2 complexes by SAH-EZH2, Sf21 cells were co-transfected with HA-EED and FLAG-EZH1 or FLAG-EZH2 baculovirus. EED-EZH1 and EED-EZH2 complexes were purified by anti-FLAG agarose (Sigma). EED-EZH1 and EED-EZH2 complexes (40 nM final concentration) were incubated with FITC-SAH-EZH2 peptides (final concentrations, 10, 3 and 1 μM) in 200 μl binding buffer for 2 h. After successive washes, the mixtures were incubated with anti-HA agarose (Sigma) and the level of HA-EED-bound EZH1 and EZH2 assessed by anti-HA western analysis.

Chain of purified EED (Example 6) (O75530 whole entry): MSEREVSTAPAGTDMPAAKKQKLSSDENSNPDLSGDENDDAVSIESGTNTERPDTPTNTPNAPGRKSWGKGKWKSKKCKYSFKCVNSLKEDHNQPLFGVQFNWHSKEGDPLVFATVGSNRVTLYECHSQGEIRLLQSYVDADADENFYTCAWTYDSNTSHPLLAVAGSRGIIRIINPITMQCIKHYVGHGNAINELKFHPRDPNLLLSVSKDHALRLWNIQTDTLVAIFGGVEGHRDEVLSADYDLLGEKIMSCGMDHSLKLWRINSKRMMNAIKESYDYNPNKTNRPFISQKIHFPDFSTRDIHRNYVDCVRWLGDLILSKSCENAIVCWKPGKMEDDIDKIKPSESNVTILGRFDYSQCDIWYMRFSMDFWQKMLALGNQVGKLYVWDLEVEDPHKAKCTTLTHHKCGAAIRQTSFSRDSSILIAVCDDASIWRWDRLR
T1 sequence (Q921E6 2-441 limits assumed): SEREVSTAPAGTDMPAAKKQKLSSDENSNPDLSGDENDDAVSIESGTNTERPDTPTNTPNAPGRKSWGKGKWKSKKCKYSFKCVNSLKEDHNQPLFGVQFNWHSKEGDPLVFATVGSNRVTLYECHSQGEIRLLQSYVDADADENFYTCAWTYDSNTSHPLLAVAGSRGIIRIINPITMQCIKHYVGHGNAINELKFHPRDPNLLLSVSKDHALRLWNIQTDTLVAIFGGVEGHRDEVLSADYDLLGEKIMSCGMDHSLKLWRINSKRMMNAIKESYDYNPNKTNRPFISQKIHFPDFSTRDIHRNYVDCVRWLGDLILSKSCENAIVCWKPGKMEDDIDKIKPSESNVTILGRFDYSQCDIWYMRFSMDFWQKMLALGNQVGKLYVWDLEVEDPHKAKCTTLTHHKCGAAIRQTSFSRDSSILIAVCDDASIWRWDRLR

Binder	fold displacement efficiency against SAH-EZH2 (purified EED (Example 6))	binding result [1]
Ac-FSSNR[S5]KIL[S5]RT[S5]ILN[S5]EWKQRRIQPV (staple 6-10, 13-17, Doubly stapled peptide; also called doubly stapled SAH-EZH2 peptide) [acetyl-SAH-EZH2(42-68)AC]	2 fold	
{FITC}-FSSNR[S5]KIL[S5]RTQILNQQWKQRRIQPV (staple 6-10, Negative control peptide; also called SAH-EZH2MUT; SAH-EZH2(42-68)A-E54,59Q) [FITC-SAH-EZH2A(42-68)E54Q/E59Q]		no binding (tested: 20 µM peptide on cells)
